Reference: publication PMC4795551, “Biochemistry and Crystal Structure of Ectoine Synthase: A Metal-Containing Member of the Cupin Superfamily” (PLoS ONE, 2016)

Experiments:
[1] = substrate: CC(=O)NCC[C@H](N)C(=O)O; assay: HPLC assay of ectoine formation, Michaelis-Menten; format: biochemical, Sphingopyxis alaskensis; details: 20 mM Tris pH 8.5, 200 mM NaCl, 1 mM FeCl2, 15 °C, 20 min, 0-40 mM substrate
[2] = substrate: CC(=O)N[C@@H](CCN)C(=O)O; assay: HPLC assay of ectoine formation, Michaelis-Menten; format: biochemical, Sphingopyxis alaskensis; details: 20 mM Tris pH 8.5, 200 mM NaCl, 1 mM FeCl2, 15 °C, 20 min, 0-200 mM substrate
[3] = biological target: the molecule itself; assay: SEC-MALS; HPLC-MALS; Bio SEC-5 HPLC column (300 Å), 20 mM Tris-HCl (pH 7.5), 200 mM NaCl; 100 μl of purified (Sa)EctC at 2 mg ml^-1 loaded

B1: ectoine synthase from Sphingopyxis alaskensis, (Sa)EctC-Strep-tag II protein (enzyme, UniProt Q1GNW6 1-137, looked up)
chain: MIVRNLGDIRKTDRNVRSDGWASARMLLKDDGMGFSFHVTTLFAGSELRMHYQNHLEAVLVLKGTGTIEDLATGEVHALRPGVMYALDDHDRHIVRPETDILTACVFNPPVTGREVHDESGAYPADPELAREPVAAD
notes: Ectoine synthase EctC (EC 4.2.1.108) of Sphingopyxis alaskensis, 137 amino acids; made from a codon-optimised synthetic ectC gene; printed stretches: 1-MIVRN-5 and 82-GVMYAL-87; Monomer with tag 16.3 kDa; In the crystals only Met-1 to Glu-115 (open) or Met-1 to Gly-121 (protomer A, semi-closed) are resolved; not shown: Strep-tag II, C-terminal, kept
B1 was tested, and the Km [1] was 4.9 ± 0.5 mM, the kcat [1] was 7.2 s⁻¹ and the Km [2] was 25.4 ± 2.9 mM. For the same protein, the kcat [2] was 0.6 s⁻¹ and the “stoichiometry N” value [3] was 2.
